Target: GFP-LL5β (-ADA) (UniProt Q86SQ0)
Assay: co-IP

Sequence of UniProt Q86SQ0 (Q86SQ0 whole entry): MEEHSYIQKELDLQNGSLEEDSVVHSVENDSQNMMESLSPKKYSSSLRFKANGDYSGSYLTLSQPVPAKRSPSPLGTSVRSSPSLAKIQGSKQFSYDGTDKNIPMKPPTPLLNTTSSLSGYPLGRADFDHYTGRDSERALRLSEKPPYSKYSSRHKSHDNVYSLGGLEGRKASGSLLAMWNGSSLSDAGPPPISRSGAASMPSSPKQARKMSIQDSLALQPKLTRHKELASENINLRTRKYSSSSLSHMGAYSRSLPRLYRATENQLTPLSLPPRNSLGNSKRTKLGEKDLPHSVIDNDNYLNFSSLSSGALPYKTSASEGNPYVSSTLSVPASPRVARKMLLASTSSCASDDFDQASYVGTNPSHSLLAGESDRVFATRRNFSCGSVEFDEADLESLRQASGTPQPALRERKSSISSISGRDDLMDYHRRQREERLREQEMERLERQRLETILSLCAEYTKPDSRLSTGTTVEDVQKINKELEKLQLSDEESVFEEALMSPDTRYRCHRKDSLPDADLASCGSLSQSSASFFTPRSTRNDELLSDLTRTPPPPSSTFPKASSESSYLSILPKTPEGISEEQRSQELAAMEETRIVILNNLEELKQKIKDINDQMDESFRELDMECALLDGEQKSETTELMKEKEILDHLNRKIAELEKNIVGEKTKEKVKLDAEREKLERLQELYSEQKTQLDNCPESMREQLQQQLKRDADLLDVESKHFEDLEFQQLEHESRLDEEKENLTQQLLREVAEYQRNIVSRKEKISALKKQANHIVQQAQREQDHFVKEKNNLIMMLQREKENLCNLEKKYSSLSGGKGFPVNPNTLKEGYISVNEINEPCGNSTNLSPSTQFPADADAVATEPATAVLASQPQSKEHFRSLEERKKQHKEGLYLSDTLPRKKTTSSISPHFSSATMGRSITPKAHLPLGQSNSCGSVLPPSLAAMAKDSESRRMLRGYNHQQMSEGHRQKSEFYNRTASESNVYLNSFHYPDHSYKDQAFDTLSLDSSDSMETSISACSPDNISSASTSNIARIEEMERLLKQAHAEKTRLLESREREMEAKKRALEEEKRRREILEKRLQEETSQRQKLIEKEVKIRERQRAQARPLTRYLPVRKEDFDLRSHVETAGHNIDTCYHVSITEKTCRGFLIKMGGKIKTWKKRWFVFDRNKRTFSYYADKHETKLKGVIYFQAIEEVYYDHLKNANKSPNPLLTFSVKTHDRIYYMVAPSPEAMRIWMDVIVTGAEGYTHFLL

B1: endogenous CLASP2 (natural protein)
chain: MAMGDDKSFDDEESVDGNRPSSAASAFKVPAPKTSGNPANSARKPGSAGGPKVGGASKEGGAGAVDEDDFIKAFTDVPSIQIYSSRELEETLNKIREILSDDKHDWDQRANALKKIRSLLVAGAAQYDCFFQHLRLLDGALKLSAKDLRSQVVREACITVAHLSTVLGNKFDHGAEAIVPTLFNLVPNSAKVMATSGCAAIRFIIRHTHVPRLIPLITSNCTSKSVPVRRRSFEFLDLLLQEWQTHSLERHAAVLVETIKKGIHDADAEARVEARKTYMGLRNHFPGEAETLYNSLEPSYQKSLQTYLKSSGSVASLPQSDRSSSSSQESLNRPFSSKWSTANPSTVAGRVSAGSSKASSLPGSLQRSRSDIDVNAAAGAKAHHAAGQSVRSGRLGAGALNAGSYASLEDTSDKLDGTASEDGRVRAKLSAPLAGMGNAKADSRGRSRTKMVSQSQPGSRSGSPGRVLTTTALSTVSSGVQRVLVNSASAQKRSKIPRSQGCSREASPSRLSVARSSRIPRPSVSQGCSREASRESSRDTSPVRSFQPLASRHHSRSTGALYAPEVYGASGPGYGISQSSRLSSSVSAMRVLNTGSDVEEAVADALKKPARRRYESYGMHSDDDANSDASSACSERSYSSRNGSIPTYMRQTEDVAEVLNRCASSNWSERKEGLLGLQNLLKNQRTLSRVELKRLCEIFTRMFADPHGKRVFSMFLETLVDFIQVHKDDLQDWLFVLLTQLLKKMGADLLGSVQAKVQKALDVTRESFPNDLQFNILMRFTVDQTQTPSLKVKVAILKYIETLAKQMDPGDFINSSETRLAVSRVITWTTEPKSSDVRKAAQSVLISLFELNTPEFTMLLGALPKTFQDGATKLLHNHLRNTGNGTQSSMGSPLTRPTPRSPANWSSPLTSPTNTSQNTLSPSAFDYDTENMNSEDIYSSLRGVTEAIQNFSFRSQEDMNEPLKRDSKKDDGDSMCGGPGMSDPRAGGDATDSSQTALDNKASLLHSMPTHSSPRSRDYNPYNYSDSISPFNKSALKEAMFDDDADQFPDDLSLDHSDLVAELLKELSNHNERVEERKIALYELMKLTQEESFSVWDEHFKTILLLLLETLGDKEPTIRALALKVLREILRHQPARFKNYAELTVMKTLEAHKDPHKEVVRSAEEAASVLATSISPEQCIKVLCPIIQTADYPINLAAIKMQTKVIERVSKETLNLLLPEIMPGLIQGYDNSESSVRKACVFCLVAVHAVIGDELKPHLSQLTGSKMKLLNLYIKRAQTGSGGADPTTDVSGQS
B1 was tested, and the fold decrease of association against GFP-LL5β was 2 fold.

Source: article doi:10.1101/2021.09.02.458712
